From a protein production outcome set (Wang et al. 2014) come the findings set out here.

A short description of this series: label from the status in PepcDB records.
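Note: failed if final PepcDB status was selected cloned or expressed and not failed if soluble or beyond.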

Turning to “MQGIKNLTHGPINRQLFNLAMPIMATSFIQMAYSLTDMAWVGRLGSEAVAAIGSVGILTWMSGSISLLNKVGSEVSVGQSIGAQNQEDARQFASHNITIALIISICWGGLLFMFASPIIRIYELEEHITANAIEYLRIISTALPFIFLSAAFTGIYNAAGRSKIPFYISGTGLIMNIILDPLFIFGFGLGTNGAAYATWLSQATVFAIFIYQLRFRKDALLGGFPFFSRLKKKYTRRILKLGLPVATLNTLFAFVNMFLCRTASEQGGHIGLMTFTTGGQIEAITWNTSQGFSTALSAFIAQNFAAGRIERVLKAWHTTLWMTGIFGTFCTLLFVFYGNEVFSIFVPEQAAYEAGGVFLRIDGYSQLFMMLEITMQGVFYGIGRTVPPAIVSIVCNYMRIPLAILFVRMGMGVEGIWWAVCVTTIAKGLILLGWFTMIRKKCLNLPSVSTR”, the protein production entry is “failed”.
Regarding “MQGIPLGSEYFEKLDPYFLVCIAKEYLLFCPKQPRLPGQIVSPLLKQVAVILNPVVKAAPALIDPLYLMAQVRYYSGELENAQSILQRCLELDPASVDAHLLMCQIYLAQGNFGMCFHCLELGVSHNFQVRDHPLYHLIKARALNKAGDYPEAIKTLKMVIKLPALKKEEGRKFLRPSVQPSQRASILLELVEALRLNGELHEATKVMQDTINEFGGTPEENRITIANVDLVLSKGNVDVALNMLRNILPKQSCYMEAREKMANIYLQTLRDRRLYIRCYRELCEHLPGPHTSLLLGDALMSILEPEKALEVYDEAYRQNPHDASLASRIGHAYVKAHQYTEAIEYYEAAQKINGQDFLCCDLGKLLLKLKKVNKAEKVLKQALEHDIVQDIPSMMNDVKCLLLLAKVYKSHKKEAVIETLNKALDLQSRILKRVPLEQPEMIPSQKQLAASICIQFAEHYLAEKEYDKAVQSYKDVFSYLPTDNKVMLELAQLYLLQGHLDLCEQHCAILLQTEQNHETASVLMADLMFRKQKHEAAINLYHQVLEKAPDNFLVLHKLIDLLRRSGKLEDIPAFFELAKKVSSRVPLEPGFNYCRGIYCWHIGQPNEALKFLNKARKDSTWGQSAIYHMVQICLNPDNEVVGGEAFENQGAESNYMEKKELEQQGVSTAEKLLREFYPHSDSSQTQLRLLQGLCRLATREKANMEAALGSFIQIAQAEKDSVPALPALAQAYVFLKQIPKARMQLKRLAKTPWVLSEAEDLEKSWLLLADIYCQGSKFDLALELLRRCVQYNKSCYKAYEYMGFIMEKEQSYKDAVTNYKLAWKYSHHANPAIGFKLAFNYLKDKKFVEAIEICNDVLREHPDYPKIREEILEKARKSLRP”, the protein production entry is “failed”.
The value for “MQHGPVVRRRKLGAELRALRTSAGITSGEAARLVGWHQSKVSRIETGTSGAKPADVRLLLDAYGVTDEQLRGLLVMLAHSEDAGGRNHWWHAYRGVLPPTYRDFISLESQAAAMRTLETTVVPGLLQTPEYARAVTRAAVDGMPAERLDTLVEVRLARQDVLRGEPPLELSAVLDEAVLRRVVGGPGVMSRQLTRLVEAAQLPHVRIQVLPFAAGAHIGVTGPFVIFSFSSTSDLDVVVLDHLTSSLHLERKEDLEAYTEAFNALLIHALSPEDSLDFIAATAAGA” was “failed”; that for “MQHLDLQVVRKALKWSVGGERVWFCTVLTTYGSAPRAPGSLLAVNASGEWIGSLSGGCVEDDFLERVAAGGFPDPAVIVRYGEGDDPNSNIRLPCGGILDVLVENLAPDCDVQAHLRELESALLGQRRLLREVELGSGARSLRDDSSHGPRAERDGECVRLRVGAAQRLLLAGYSSVAHACAEFGKGLGFEVILCDPREEALRGVVLEGIEIRRELPSLFIADGGCHADTAVVALTHDPKIDDLAMLEAVRTEAFYIGVMGSRATSEKRFERLRRIGGLGDAELARIHAPIGLNLGSKTPAEIALAVLADILRIRNGIPRERL” was “failed”.
The value for “MQHNELKTPYFMINEDKLIANLEKAKQLKEISGVKLVLALKCFSTWGVFDIIKPYLDGTTSSGPFEVKLGYETFGGETHAYSVGYSEDDVREVADICDKMIFNSQSQLAAYRHIVEGKASIGLRLNPGVSYAGQDLANPARKFSRLGVQADHIKPEVFEGIDGVMFHMNCENKDVDAFIGLLDAISEQFGEYLNKLDWVSMGGGVFFTWPGYDIEKLGLALKAFSEKHGVQMYLEPGEAIITKTTDLVVTVVDIVENVKKTAIVDSATEAHRLDTLIYNEPASILEASDNGEHEYVIGSCSCLAGDQFCVANFDQPLEIGQRLHILDSAGYTMVKLNWFNGLRMPSVYCERSSGEIQKLNEFDYSDFKRSLSQWSVK” was “failed”; that for “MQIFETILIFLALVILSSFLHTFLPKIPLAFIQIILGMLLYVTPIPVQFNFDSELFMVALIAPLLFVEGVKVSRVHLRRYIKPVLMMALGLVVTTVIVVGLFVHWIWPELPMAAAFALAAILCPTDAVAVQAITNGKVLPKGSMTILEGESLLNDAAGIISFKIAVAALITGGFSMVNAVEQFLISSIGGFIVGLLIGVALVRFRVTLSRRGIENINMFTFIQLVTPFITYIVAEMFHASGIIAAVVAGLVHGFERDRIAQARTRLQMSYNHTWNILGYALNGFVFSILGFLIPEVVGRIIENEPHNLIFLITVTCLIALAIYLFRFLWVFVLYPYFYLPVSPFQKMISHNEDDQKTAETPPKRGMYAFIMTLCGVHGTISLAIALTLPYMLADHHSFIFRDDLLFIASGMVIISLIVAQMILPVVTPNAKKPKIVGMNFKQARVYILEKVIDSLNQQSSVTSSFQYGNVIKDYHDKLAFLRTVENEDENTKELQRLQKLAFDVENQTLNGLVENGDITTNVLDNYMRYTERTQVYKQASLLQRIKVEVRAMILKRRIRTKVKTNAASPLSVVDNLREISNIMRTVHYRVVSRLGKETTENNKLEVGMICDSYLIRIDNLTPSNFFNPKNENSITKIKLSALKEQRRILNQLVEDEEVSEVTALKIREAINYDEMIIVDSSTD” was “failed”; that for “MQILEDFDGKALPKLETDRLILRQRTVGDVPAMFDYVCLEEVAYPAGLSPIASLEDEYDYFENRYYQNLEKAKLPSGYGITVKGSDRIIGSCAFNHRHEDDVFEICYLLHPDYWGHGYMTEAVAALIEVGFTLLNLHKIEIRCYDYNKQSRRVAEKLGFTLEATIRDRKDNQDNRCVNLIYGLLRSEWE” was “failed”.
Turning to “MQIVQIARPGSMKGWIRKAVARYAHATGRGGKFYRRFCNPSGLEWGAYLARWGNFHSVGSNFYVNTGCKFLDPSLVRIGNSVGLSDCTLIGHDGVVLLIEHRFGKHLDSVGFIDIKDNCFIGHGAIVMPRVTIGPESIVAAGAVVTKDVPPGTVYGGNPAEFICTTEQLIKRVEARCEAYPWIDLVKQRNGAYDPEVEPLLMAQRRQYFFGDSLEHHHHHH”, the protein production result was “failed”.
With “MQKFLDWLERVLTPLAKVIGENKYLVAIRDGFLLSTPLLIVGSVFLLIANFPLPQWDTWMSHLLGKDWATMMSVPASASFDVMTILAVVGIAYSLGKQFNVDAMQAGIIALVSFFIVTPYQTLFTPENSSKVYEVTSLPLKWMGSSGLFLGMIVALIATRLFVAIVRKGWTIKMPEGVPPTVVKSFEALIPSFLVVTLMFLVNWLAALTPYGNLQDVIFEFLQTPLLSLGNTLGAMSIAYLFLHFFWFFGINGGSVVGAVFNPVLRALSVENLQAFKDGHEIPNIITGQFQDMFATFGGAGSTLSLIIVMVLFCKSQRIKKLSQLSLIPGVFGINEPIIFGLPIVLNPILLIPFVLVPAINIIIAYFAMDWGLVPLTNGIQLPWTTPPIISGFLVSGWQGSILQALLLVLGMFIYYPFIRVMDDQYLREEWKAQEEESEEIDFDSFDFDDL”, the protein production entry is recorded as “failed”.
As to “MQKIVIVANGAPYGSESLFNSLRLAIALREQESNLDLRLFLMSDAVTAGLRGQKPGEGYNIQQMLEILTAQNVPVKLCKTCTDGRGISTLPLIDGVEIGTLVELAQWTLSADKVLTF”, the protein production result is given as “not failed”.
In the case of “MQKKQVIAVLVAVVGIGIVFSLPKVLVDNEKESVEGAEVTVAHEDSLSEVGKLMAEKHTHKPSDSEQKKLQDFTKNYYSISDKEKKRIFADSILGYYNKFHKYDSVAKYSGEIAMLQPNEKNLLSAADAYMQASDLVSVNEKSAYMDKSRLYYEKALDINASNLDTKSKLAMTYVTTSNPMTGIRILQEVVKEDPRNETAIFNLGYLSMQSRQYNKAVDRFKSLIEINPAHASGTFYLGLSYLELGNKGKANQYFMKAKGLDSDPEFQAIIDSYLKESN”, the protein production entry was “failed”.
As to “MQLPLHQVAQPAFYISVVPDMVGGRLSSHDRDLLGLAHQLAGQDGAVLAVVFGEHKESAFATAGVDRLLVLQGSEFEGYAPEQRVQGLRAVDNQFSPRHWLLPDSRTGGGELGRRFAAALGERPATRVWQVKDGQCIGRAGAGLQDLARPVVRLILAAAECAEPVSETRHEALPVELSTSVARSLARIEDLGAVAVDPAAIPMAEAEFIFSGGNGVKDWPLFHQTAAALGATEGASRVAVDDGFMARDRQVGASGIWVTARVYVAVGISGAIQHLQGIGACDKVVAINLDPGCDMIKRADLSVIGDSAEILKALIAAVAAYRNDAKRDAA”, the protein production entry is given as “failed”.
For “MQLPTQQVAVLDAASTDDPQRIEALAADTDYPPETIAGAALALEAEGLVAVTETTTTTVSLTDEGHAYATDGLPEVRLYRAALDAGADDAPVEMGSVIGAAGLDGPQVDIALSNYARKGYGTIDSGALAADPDADPENDPEADALATLTDGDSVDDDAVVDQLASRDLVTVSERTVRSVTLTEAGVTELMAGVEATDEVGELTPELLASGEWADVEFADYNVAADAADHTPGKTHVLRQAAERVTDVLVGMGFQEMAGPHVDADFYINDCLFMPQDHPARNHWDRFALSNPARIDELPDALVERVERAHREGAGDDGDGYHSPWDEDFARALALRGHTTSLTARHLAGLADADVEAPARYFSVEKAYRNDTLDATHLLEFFQIEGWVLADDLSVRDLMGTFREFYSQFGIHDLQFKPTYNPYTEPSFELFGRHPETGELIEIGNSGIFRPEMLDPLDVDGDVMAWGLALERLLMLMTGFEDIRDVHGTLCDVGFLRNAEVVY”, the protein production result is recorded as “failed”.
For the sequence “MQLVVARIGRAHGIKGEVTVEVRTDEPELRLGPGAVLATDPASVGPLTIETGRVHSGRLLLRFEGVRDRNGAEALRNTLLIAEVDPDEVPEDPDEYYDHQLMDLDVVTKDGTEVGRITEISHLPSQDLFVVERSDGSEVYIPFVEEIVVEIDLEEQRAVIDPPPGLIDDRAEVDSSDTEAATEADALEHHHHHH”, the protein production result is on record as “not failed”.
In the case of “MQMDSAQNQFNKRARLFEDPELKDAKVIYPSNPESTEPVNKGYGGSTAIQSFFKESKAEETPKVLKKRGRKKKNPNPEEVNSSTPGGDDSENRSKFYESASARKRTVTAEERERAVNAAKTFEPTNPYFRVVLRPSYLYRGCIMYLPSGFAEKYLSGISGFIKLQLGEKQWPVRCLYKAGRAKFSQGWYEFTLENNIGEGDVCVFELLRTRDFVLEVTAFRVNEYV”, the protein production result was “failed”.
The value for “MQMSMLTRLHYFNCVVETGSISKASRIFDVQPSSISRQLTALEKELGVLLLKRTSRNIGLTEAGQTYYKYSQKIVSDLDEARCAVNDLQQKPKGNLKVSMAVGFAECCILPMIPTFTKLYPEINLELEMTGRVVDLVEENVDVAIRTGRLRDSNLIALKLTSNNFLLCASPQYITEHGTPKSPFNLTDFECIRYEYAGWRDWYLMNDKPTKLTIKSGLTVRSINGQKQLILNHAGLALMPKWSVINELDNGTLVQVLEQNIFSPYESMSSTYAIYLKRELISPKVRVFIDFIKDHIDYNS” was “failed”; that for “MQNIRVVLARPNHPGNIGSAARAMKTMGLSRLYLVEPKVFPSEEANALASGAVDLLENATVVGSLREALSDVTVACALTSRRRELTTPLSTPRQTTPELIARARDGEQVALVFGNETFGLSIEEVEQCNRLVTIPGNPDYFSLNLAMAVQVMTYELFSHTGVDVEYLRAEGEAATQSEVDGMCGHLEQAMDEIGYFQRRNSERLMRRMRTMFHRAGMLREEIDILRGFYKQVQRTASGRSGDAD” was “failed”.
